The record followed here is patent US20200399375A1 (SUZHOU SUNCADIA BIOPHARMACEUTICALS, published 2020).

Assay [1] deals with T1, human PD-L1 antigen (huPD-L1-his, Sino biological, 10084-H08H-200) (human, UniProt Q9NZQ7 19-239).
T1 construct: Bought protein; also called human PD-L1-his; not shown: His tag
In words: affinity measurement; method and antigen not named in the sentence (PD-L1).

Assay [2] concerns the target T2, PD-L1 Fc fusion protein: PD-L1 (ECD)-Fc (human IgG1) (human).
T2 construct: Coated on the plate in Tests 1 to 3; also called huPD-L1-Fc; VKL-PD-L1(ECD)-Fc(human IgG1)
In words: hybridoma screening, binding ELISA on coated PD-L1(ECD)-Fc (Test 1). As for the experimental part:
On day 10-11 after fusion, an ELISA assay was performed on PD-L1 binding according to the density of the growing cells (see Test 1). For the positive cells detected in the ELISA assay (Test 1), blockade in PD-L1/PD-1 binding was detected via ELISA analysis (see Test 2). Medium in the positive wells was changed and the positive cells were expanded to a 24-well plate depending on cell density. After re-testing, the cells transferred into the 24-well plate were used for breed conservation and first sub-cloning. The positive cells during the first sub-clone screening (see Test 1) were used for breed conservation and subjected to a second sub-cloning. The positive cells during the second sub-cloning were (see Test 1) used for breed conservation and protein expression. Hybridoma cells having blocking effect on PD-L1 and PD-1 binding (see Test 2) were obtained by multiple cell fusions.
Microtitration plates were directly coated with 1 μg/ml ([…]) of PD-L1(ECD)-Fc(SEQ ID NO: 4) and incubated at 4° C. overnight. Then the plates were blocked with 150 μl/well of PBS containing 5% Skim Milk(BD, 232100) and incubated at 4° C. overnight. […] The reaction was stopped by the addition of 50 μl/well of 1M H₂SO₄ to each well and the OD value was read on an ELISA microplate reader (BMG Labtech, NOVOStar) at a wavelength of 450 nm.
In general terms: An ELISA detects its analyte on a solid surface through an enzyme-linked reagent.

The target of assay [3] is T1, human PD-L1 antigen (huPD-L1-his, Sino …). As to the kind of experiment: BIACORE (Test 4). The text has this: The anti-human capture antibody was covalently linked to the CM5 biochip (GE, BR-1000-12) according to the method described in the anti-human trapping kit (GE, BR-1008-39) instructions for affinity capturing the PD-L1 antibody of the present invention. Then, a series of concentrations of human PD-L1 antigen (Sino biological, 0084-H08H-200) were flowed through the surface of the biochip, and the reaction signal was detected in real time using a Biacore instrument (GE, BiacoreX100) to obtain the association and dissociation curves. Finally, the affinity values were obtained by fitting. After each cycle of dissociation was finished in the experiment, the biochip was washed and regenerated with regeneration solution in the anti-human capture kit (GE). The data obtained was analyzed by GE's BIA evaluation software using a 1:1(Langmuir) binding model. Ka (kon), kd (koff) and KD values were determined by the assay. The affinity of hybridoma antibodies and humanized antibodies has been summarized in other examples.

Assay [4] shares this target. In words: Biacore X100, antibody captured by anti-human antibody on CM5, antigen in flow, 1:1 Langmuir. (In general: Surface plasmon resonance follows binding to a sensor surface in real time, without labels.)
Assay [5] has as its target T3, cynomolgus PD-L1 antigen (Cyno PD-L-his, Sino 90251-C08H-100) (cynomolgus, UniProt G7PSE7 19-239).
T3 construct: Bought protein; also called CynoPD-L1-his; not shown: His tag
The description is as above.

The target of assay [6] is T2, PD-L1 Fc fusion protein: PD-L1 (ECD)-Fc …. As to the kind of experiment: blocking ELISA, PD-L1(ECD)-Fc coated, competitor biotin-human B7.1.
Assay [7] has the same target. In words: blocking ELISA, PD-L1(ECD)-Fc coated, competitor biotin-PD-1-Fc. How it is done:
The dilution of biotin (Dojindo Chemical, LK03: 3 samples) and avidin (Sigma, S2438-250UG) was 6% BSA (diluted with PBS containing 0.1% Tween20), and PBS was used as coating solution. Microtitration plates were directly coated with 1 μg/ml ([…]) of PD-L1(ECD)-Fc(SEQ ID NO: 4) and incubated at 4° C. overnight. The plate was washed three times and was blocked for 2h at 37° C. with 3% BSA(diluted with PBS containing 0.1% Tween20). The plate was washed three times and 50 μl/well of cell supernatant was added to each well. Then 50 μl/well of bio-PD-1-Fc (biotin-labeled PD-1-Fc, SEQ ID NO: 5, 2 μg/ml, PD-1-FC was labeled according to the method of Dojindo Chemical Kits Biotin Labeling Kit-NH2, LK03: 3 samples) was added to each well, well-mixed by vortex, and incubated at 37° C. for 1 h. The plates were washed 6 times, followed by addition of 50 μl/well Streptavidin-Peroxidase Polymer (S2438-250UG, Sigma, which was diluted at a ratio of 1:400), and incubated on shaker for 50 min at room temperature. The plate was washed 6 times, and then I00 μl/well of TMB was added, and incubated for 5-10 min at 37° C. Then the reaction was terminated with addition of 100 μl/well of 1M H2SO₄. The absorbance value was read on microplate reader (BMG Labtech, NOVOStar) at 450 nm, and the IC₅₀ value for blocking the binding of PD-1 antibody to ligand PD-L1 was calculated.

By Kd is commonly meant the constant that tells how readily two partners part at equilibrium. Low readings indicate higher affinity, high ones lower affinity. One may read the koff as the first-order rate constant of dissociation. A low value points to slow dissociation. In general, kon refers to a measure of how fast the partners come together. In general, IC50 refers to the concentration needed to halve the response being measured. Read a low IC50 as higher potency.

B1: chimeric antibody of 24D5 with a back-mutation from serine to cysteine at position 96 (antibody, V domains shown)
VH: QVQLQQPGAELVKPGASVKLSCKASGYTFTSYWMHWVQQRPGQGLEWIGRIHPNSGGTSYNEKFKNRATLTVDKSSSTAYMQFSSLTSEDSAVYYCARGGSSYDYFDYWGQGTTLTVSS
VL: DIVLTQSPASLAVSLGQRATISCRASESVSIHGTHLMHWYQQKPGQPPKLLIYAASNLESGVPARFSGSGSETDFTLNIHPVEEEDATTYFCQQSFEDPLTFGAGTKLELK
notes: it is put on the VH because the printed VH has S at 96 and C at 22 (the disulfide partner named); also called 24D5 chimeric S96C
With B1, in assay [1], the binding result is given as “binds”.

B2: murine antibody of hybridoma clone 9-2 (antibody, V domains shown)
VH: EVQLQESGPGLAKPSQTLSLTCSVAGYSITNDYWNWIRKFPGNKLEYMGYISYTGSTYYNPSLKSRLSITRDTSKNQYYLQLNSVTAEDTAIYYCARSGGWLAPFDYWGRGTTLTVSS
VL: DIVMSQSPSSLVVSVGEKVIMSCKSSQSLFYRSNQKNSLAWYQQKPGQSPKLLIYGASTRESGVPDRFTGSGSGTDFTVTISSVKAEDLAVYYCQQYYGYPYTFGGGTKLEIK
notes: Mouse hybridoma antibody; also called hybridoma antibody 9-2; murine antibody 9-2
For the molecule B2, the binding result in assay [2] was “binds”.

B3: 9-2 chimeric antibody (antibody, V domains shown)
VH: B2 VH
VL: B2 VL
notes: also called the chimeric antibody (of 9-2)
As to B3, the binding result in assay [3] is on record as “binds”.

B4: HRP00052: 24D5(GF) IgG4 (AA) (S228P) (antibody, V domains shown)
VH: QVQLVQSGAEVKKPGASVKVSCKASGYTFTSYWMHWVRQAPGQGLEWMGRIGPNSGFTSYNEKFKNRVTMTRDTSTSTVYMELSSLRSEDTAVYYCARGGSSYDYFDYWGQGTTVTVSS
VL: DIVLTQSPASLAVSPGQRATITCRASESVSIHGTHLMHWYQQKPGQPPKLLIYAASNLESGVPARFSGSGSGTDFTLTINPVEAEDTANYYCQQSFEDPLTFGQGTKLEIKR
notes: kappa light chain; also called 24D5 29H1 GF; humanized antibody 24D5
With B4, the figures for the dissociation constant Kd in assay [4] and in assay [5] were 0.057 nM and 0.0579 nM, respectively. Moreover, the koff is 0.000101 s⁻¹ in assay [4] and 0.000106 s⁻¹ in assay [5]. For the same molecule, the kon in assay [4] came to 1.77e+06 M⁻¹ s⁻¹; in assay [5], 1.84e+06 M⁻¹ s⁻¹. Also, the IC50 turned out to be 0.0696 µg/mL in assay [6] and 0.114 µg/mL in assay [7].

B5: HRP00049: 9-2(H2/L10) IgG4 (AA)(S228P) (antibody, V domains shown)
VH: QVQLQESGPGLVKPSQTLSLTCTVSGGSISNDYWTWIRQHPGKGLEYIGYISYTGSTYYNPSLKSRVTISRDTSKNQFSLKLSSVTAADTAVYYCARSGGWLAPFDYWGRGTLVTVSS
VL: DIVMTQSPDSLAVSLGERATINCKSSQSLFYHSNQKHSLAWYQQKPGQPPKLLIYGASTRESGVPDRFSGSGSGTDFTLTISSLQAEDVAVYYCQQYYGYPYTFGGGTKVEIKR
notes: kappa light chain; also called humanized antibody 9-2
In assay [4], B5 displayed a Kd of 0.17 nM, a koff of 0.000162 s⁻¹ and a kon of 952000 M⁻¹ s⁻¹. Further, in assay [5], binding was put at a Kd of 0.172 nM, the koff worked out at 0.000167 s⁻¹ and the kon worked out at 974000 M⁻¹ s⁻¹. In addition, the IC50 in assay [6] is 0.113 µg/mL. The IC50 in assay [7] turned out to be 0.174 µg/mL.
